From article PMC3915414 come the findings set out here.

Holding throughout (experiment): solid-phase binding assay
Assay [1] concerns the target alpha-dystroglycan from dystrophin/utrophin-deficient (dko) mouse heart (mouse (endogenous in heart)) (UniProt Q62165).
Assay [2] deals with alpha-dystroglycan from dystrophin-deficient (mdx) mouse heart (mouse (endogenous in heart)) (UniProt Q62165).
Assay [3] deals with alpha-dystroglycan from wild-type (C57BL/10) mouse heart (mouse (endogenous in heart)) (UniProt Q62165).

As for “Engelbreth-Holm-Swarm (EHS) laminin (from UniProt P19137 25-3083; P02469 22-1786; P02468 34-1607) (complex)”, the results for the Kd in assay [1], in assay [2] and in assay [3] were 18.8 nM, 33 nM and 21.2 nM, respectively.
